From the FLAb antibody collection (doi:10.7554/elife.23156)

B1: scFv; the commonest letter at each place (parent)
chain 1: EVKLDETGGGLVQPGRPMKLSCVASGFTFSDYWMNWVRQSPEKGLEWVAQIRNKPYNYETYYSDSVKGRFTISRDDSKSSVYLQMNNLRVEDMGIYYCTGSYYGMDYWGQGTSVTVS
chain 2: DVVMTQTPLSLPVSLGDQASISCRSSQSLVHSNGNTYLRWYLQKPGQSPKVLIYKVSNRFSGVPDRFSGSGSGTDFTLKISRVEAEDLGVYFCSQSTHVPWTFGGGTKLEIK

Tests used:
fluorescein = variants of: B1; assay: Kd (Tite-Seq); conditions: with fluorescein; format: scFv 4-4-20, heavy + light
[1] = variants of: B1; assay: yeast surface expression (ratio to wild type); higher = more expressed; conditions: format: scFv 4-4-20, heavy + light

Variant | Kd (fluorescein) | yeast surface expression [1]
chain 1 F29L Y32F | ≥ 10 µM | 0.72
chain 1 D31G M34C N35L | ≥ 10 µM | 0.825
chain 1 S30T M34I | 0.00493 µM | 0.678
chain 1 Y32P W33C | 2.47 µM | 0.832
chain 1 Y32V V37I | ≥ 10 µM | 1.03
chain 1 Y32W N35T | ≥ 10 µM | 0.786
chain 1 T28P D31S | 0.00115 µM | 1.07
chain 1 G100E D106Q | ≥ 10 µM | 0.172
chain 1 F29H W33R | ≥ 10 µM | 0.182
chain 1 D106C W108K | ≥ 10 µM | 0.314
chain 1 G100R G104S | ≥ 10 µM | 0.28
chain 1 W33K M34T | ≥ 10 µM | 0.893
chain 1 S30P D31A Y32H | ≥ 10 µM | 0.725
chain 1 F29R Y32Q | ≥ 10 µM | 0.633
chain 1 S30F V37M | 0.00128 µM | 0.669
chain 1 M34Y W36V | ≥ 10 µM | 0.522
chain 1 S101K Y103R | ≥ 10 µM | 0.714
chain 1 S30I Y32T | ≥ 10 µM | 0.909
chain 1 S101H Y103N | ≥ 10 µM | 0.984
chain 1 D106H W108I | ≥ 10 µM | 0.67

Variant | Kd (fluorescein) | yeast surface expression [1]
chain 1 G104A D106Q | ≥ 10 µM | 0.575
chain 1 F29E N35T | ≥ 10 µM | 0.578
chain 1 Y103N M105G Y107M | ≥ 10 µM | 0.836
chain 1 F29W D31H | 0.0221 µM | 0.626
chain 1 Y32F V37C | 0.00142 µM | 0.914
chain 1 G100R G109C | ≥ 10 µM | 0.173
chain 1 G100N G104Y | ≥ 10 µM | 0.185
chain 1 S101L Y103S M105A | ≥ 10 µM | 0.713
chain 1 S101Y Y102G | ≥ 10 µM | 0.796
chain 1 D31G N35Q | ≥ 10 µM | 0.746
chain 1 G104F D106G | ≥ 10 µM | 0.169
chain 1 T28W D31F | 0.116 µM | 0.553
chain 1 W33D W36M | ≥ 10 µM | 0.165
chain 1 Y103Q M105G | ≥ 10 µM | 0.906
chain 1 D106F Y107D | ≥ 10 µM | 0.296
chain 1 G104T Y107P | ≥ 10 µM | 0.313
chain 1 F29T D31P | ≥ 10 µM | 1.06
chain 1 D106W Y107I | ≥ 10 µM | 0.31
chain 1 M105I D106Y | ≥ 10 µM | 0.4
chain 1 M105A W108L | 0.00184 µM | 0.505

Variant | Kd (fluorescein) | yeast surface expression [1]
chain 1 F29V D31E | 1.47 µM | 0.753
chain 1 T28A Y32H | 0.0318 µM | 0.717
chain 1 Y32R W36V | ≥ 10 µM | 0.547
chain 1 W33N N35I | ≥ 10 µM | 0.657
chain 1 Y102W | 0.00361 µM | 0.638
chain 1 W33V V37S | ≥ 10 µM | 0.535
chain 1 S101R Y107L | ≥ 10 µM | 0.862
chain 1 T28D S30P | 0.0015 µM | 1.24
chain 1 G104F G109W | ≥ 10 µM | 0.0981
chain 1 Y32E W33T | ≥ 10 µM | 0.889
chain 1 Y102M Y103A Y107L | ≥ 10 µM | 0.84
chain 1 G100Q W108N | ≥ 10 µM | 0.289
chain 1 N35C V37K | ≥ 10 µM | 0.542
chain 1 N35C V37M | ≥ 10 µM | 0.689
chain 1 V37D | 0.00122 µM | 1.05
chain 1 V37A | 0.0434 µM | 0.784
chain 1 D106K W108G | ≥ 10 µM | 0.276
chain 1 W33R N35Y | ≥ 10 µM | 0.794
